Assay [1] deals with Rmo2^HMA (integrated HMA domain of the barley tandem kinase protein Rmo2) (barley). Briefly: ITC; […]; 25°C; 20 mM HEPES pH 7.5, 150 mM NaCl; triplicate, […].
The target in another assay is Rwt7^HMA-6His (wheat). The description is as above.

pKd: −log10 of the molar value.

In the case of “PBY2 (Magnaporthe oryzae effector) (natural protein)”, the pKd – broadly, the Kd on a negative log10 scale, so that one unit is a factor of ten – in assay [1] is 7.27.

In turn, “PWT7 (Magnaporthe oryzae effector) (natural protein)” gave a pKd with Rwt7^HMA-6His (wheat) of 8.53.
